# Numbering of substitutions follows the chain as printed.
# T1: 6X His-PYR1 A89W
# T1 chain: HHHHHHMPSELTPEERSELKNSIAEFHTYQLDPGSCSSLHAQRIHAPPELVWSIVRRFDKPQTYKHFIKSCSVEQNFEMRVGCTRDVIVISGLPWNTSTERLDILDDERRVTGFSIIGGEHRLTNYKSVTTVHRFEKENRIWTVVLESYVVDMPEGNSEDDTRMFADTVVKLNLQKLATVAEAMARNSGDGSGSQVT
# T2: 6X His-PYR1 F159V
# T2 chain: T1 chain with W95A, F165V
# T3: 6X His-PYR1 H60P
# T3 chain: T1 chain with H66P, W95A
# T4: 6X His-PYR1 I84Q
# T4 chain: T1 chain with I90Q, W95A
# T5: 6X His-PYR1 K170W
# T5 chain: T1 chain with W95A, K176W
# T6: 6X His-PYR1 M158I
# T6 chain: T1 chain with W95A, M164I
# T7: 6X His-PYR1 T162F
# T7 chain: T1 chain with W95A, T168F
# T8: 6X His-PYR1 V83F
# T8 chain: T1 chain with V89F, W95A
# T9: 6x-His-PYL10, wild type
# T9 chain: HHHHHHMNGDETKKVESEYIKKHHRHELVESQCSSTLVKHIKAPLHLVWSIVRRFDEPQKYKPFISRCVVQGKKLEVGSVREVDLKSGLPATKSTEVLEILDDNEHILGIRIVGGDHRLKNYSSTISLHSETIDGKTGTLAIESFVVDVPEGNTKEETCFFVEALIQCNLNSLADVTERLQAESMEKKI
# T10: 6x-His-PYL6, wild type
# T10 chain: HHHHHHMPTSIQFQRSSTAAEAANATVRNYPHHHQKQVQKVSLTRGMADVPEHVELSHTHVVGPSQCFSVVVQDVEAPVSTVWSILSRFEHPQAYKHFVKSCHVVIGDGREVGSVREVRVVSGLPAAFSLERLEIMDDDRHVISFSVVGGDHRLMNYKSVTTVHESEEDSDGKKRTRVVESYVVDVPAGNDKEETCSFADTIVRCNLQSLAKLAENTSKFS
# T11: PYL2^CA4C (H65P, A93W, M164I, F165V), 6xHis fusion
# T11 chain: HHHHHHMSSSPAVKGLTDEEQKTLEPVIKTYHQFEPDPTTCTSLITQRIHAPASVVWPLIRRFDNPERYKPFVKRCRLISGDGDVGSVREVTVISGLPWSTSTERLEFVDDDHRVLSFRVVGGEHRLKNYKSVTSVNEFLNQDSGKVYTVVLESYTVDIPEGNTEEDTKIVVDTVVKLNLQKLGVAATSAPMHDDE
# T12: PYL9^CA4C (A91W, Y160I, F161V), 6xHis fusion
# T12 chain: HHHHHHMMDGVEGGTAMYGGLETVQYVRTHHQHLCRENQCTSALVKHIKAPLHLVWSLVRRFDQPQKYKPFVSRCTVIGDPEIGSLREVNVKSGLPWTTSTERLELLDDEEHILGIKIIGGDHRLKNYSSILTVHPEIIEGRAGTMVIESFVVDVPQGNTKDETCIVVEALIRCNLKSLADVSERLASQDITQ
# T13: PYR1^CA3 (H60P, V83F, F159V), 6xHis fusion
# T13 chain: T1 chain with H66P, V89F, W95A, F165V
# T14: PYR1^CA4 (H60P, V83F, F159V, M158I), 6xHis fusion
# T14 chain: T1 chain with H66P, V89F, W95A, M164I, F165V
# T15: PYR1^CA4B (V83F, M158I, F159V, K170W), 6xHis fusion
# T15 chain: T1 chain with V89F, W95A, M164I, F165V, K176W
# T16: PYR1^CA4C (H60P, A89W, M158I, F159V), 6xHis fusion
# T16 chain: T1 chain with H66P, M164I, F165V
# B1: GST-HAB1 (protein)
# chain: SPVEITQLKNVTDAADLLSDSENQSFCNGGTECTMEDVSELEEVGEQDLLKTLSDTRSGSSNVFDEDDVLSVVEDNSAVISEGLLVVDAGSELSLSNTAMEIDNGRVLATAIIVGESSIEQVPTAEVLIAGVNQDTNTSEVVIRLPDENSNHLVKGRSVYELDCIPLWGTVSIQGNRSEMEDAFAVSPHFLKLPIKMLMGDHEGMSPSLTHLTGHFFGVYDGHGGHKVADYCRDRLHFALAEEIERIKDELCKRNTGEGRQVQWDKVFTSCFLTVDGEIEGKIGRAVVGSSDKVLEAVASETVGSTAVVALVCSSHIVVSNCGDSRAVLFRGKEAMPLSVDHKPDREDEYARIENAGGKVIQWQGARVFGVLAMSRSIGDRYLKPYVIPEPEVTFMPRSREDECLILASDGLWDVMNNQEVCEIARRRILMWHKKNGAPPLAERGKGIDPACQAAADYLSMLALQKGSKDNISIIVIDLKAQRKFKTRT
# Tests used:
# 6X His-PYR1 A89W = target: T1, 6X His-PYR1 A89W
# 6X His-PYR1 F159V = target: T2, 6X His-PYR1 F159V
# 6X His-PYR1 H60P = target: T3, 6X His-PYR1 H60P
# 6X His-PYR1 I84Q = target: T4, 6X His-PYR1 I84Q
# 6X His-PYR1 K170W = target: T5, 6X His-PYR1 K170W
# 6X His-PYR1 M158I = target: T6, 6X His-PYR1 M158I
# 6X His-PYR1 T162F = target: T7, 6X His-PYR1 T162F
# 6X His-PYR1 V83F = target: T8, 6X His-PYR1 V83F
# 6x-His-PYL10, wild type = target: T9, 6x-His-PYL10, wild type
# 6x-His-PYL6, wild type = target: T10, 6x-His-PYL6, wild type
# [1] = target: T11, PYL2^CA4C (H65P, A93W, M164I, F165V), …
# [2] = target: T12, PYL9^CA4C (A91W, Y160I, F161V), 6xHis …
# [3] = target: T13, PYR1^CA3 (H60P, V83F, F159V), 6xHis …
# [4] = target: T14, PYR1^CA4 (H60P, V83F, F159V, M158I), …
# [5] = target: T15, PYR1^CA4B (V83F, M158I, F159V, K170W), …
# [6] = target: T16, PYR1^CA4C (H60P, A89W, M158I, F159V), …
protein,measurement,setting,value
B1,"HAB1 phosphatase (PP2C) activity, % of control, pNPP hydrolysis, in the absence of ABA",6X His-PYR1 A89W,each of the activating mutants increased basal receptor activity in comparison to wild-type PYR1
same,"HAB1 phosphatase (PP2C) activity, % of control, pNPP hydrolysis, in the absence of ABA",6X His-PYR1 F159V,each of the activating mutants increased basal receptor activity in comparison to wild-type PYR1
same,"HAB1 phosphatase (PP2C) activity, % of control, pNPP hydrolysis, in the absence of ABA",6X His-PYR1 H60P,each of the activating mutants increased basal receptor activity in comparison to wild-type PYR1
same,"HAB1 phosphatase (PP2C) activity, % of control, pNPP hydrolysis, in the absence of ABA",6X His-PYR1 I84Q,each of the activating mutants increased basal receptor activity in comparison to wild-type PYR1
same,"HAB1 phosphatase (PP2C) activity, % of control, pNPP hydrolysis, in the absence of ABA",6X His-PYR1 K170W,each of the activating mutants increased basal receptor activity in comparison to wild-type PYR1
same,"HAB1 phosphatase (PP2C) activity, % of control, pNPP hydrolysis, in the absence of ABA",6X His-PYR1 M158I,each of the activating mutants increased basal receptor activity in comparison to wild-type PYR1
same,"HAB1 phosphatase (PP2C) activity, % of control, pNPP hydrolysis, in the absence of ABA",6X His-PYR1 T162F,each of the activating mutants increased basal receptor activity in comparison to wild-type PYR1
same,"HAB1 phosphatase (PP2C) activity, % of control, pNPP hydrolysis, in the absence of ABA",6X His-PYR1 V83F,each of the activating mutants increased basal receptor activity in comparison to wild-type PYR1
same,"PP2C activity, % of control, pNPP hydrolysis, with 0 or 10 µM ABA","6x-His-PYL10, wild type","PYL6 and PYL10, which have high basal activities ..., are not full CA receptors"
same,"PP2C activity, % of control, pNPP hydrolysis, with 0 or 10 µM ABA","6x-His-PYL6, wild type","PYL6 and PYL10, which have high basal activities ..., are not full CA receptors"
same,"PP2C activity, % of control, pNPP hydrolysis, in the absence of ABA",[1],the mutant proteins were highly activated in the absence of ABA in comparison to wild-type PYL2 or PYL9
same,"PP2C activity, % of control, pNPP hydrolysis, in the absence of ABA",[2],the mutant proteins were highly activated in the absence of ABA in comparison to wild-type PYL2 or PYL9
same,"PP2C activity, % of control, pNPP hydrolysis, in the absence of ABA",[3],both the triple and quadruple mutants dramatically increased basal PYR1 activity relative to wild-type PYR1
same,"PP2C activity, % of control, pNPP hydrolysis, in the absence of ABA",[4],both the triple and quadruple mutants dramatically increased basal PYR1 activity relative to wild-type PYR1
same,"PP2C activity, % of control, pNPP hydrolysis, in the absence of ABA",[5],both the PYR1^CA4B and PYR1^CAc mutants dramatically increased basal PYR1 activity relative to wild-type PYR1
same,"PP2C activity, % of control, pNPP hydrolysis, in the absence of ABA",[6],both the PYR1^CA4B and PYR1^CAc mutants dramatically increased basal PYR1 activity relative to wild-type PYR1

# Source: patent US20140259226
